Source: patent US20210403600A1 (University of California, published 2021)
Positions count from the first letter of the chain named. Each block holds one binder with its values, some of them ahead of it.

Tests used:
[1] = molecular target: T1, human Factor XIa (blood-derived, Haematologic Technologies Inc.) (human, UniProt P03951 19-387; P03951 388-625); assay: ELISA, wells coated with hFXIa, anti-human IgG HRP, OD 450
T1 construct: It was biotinylated via primary amines for selections, Octet and Biacore; also called FXIa; human FXIa

[2] = molecular target: T1, human Factor XIa (blood-derived, …); assay: SPR (Biacore T200), biotinylated FXIa captured on a CAP chip, Fab as analyte, 37 C
[3] = molecular target: T1, human Factor XIa (blood-derived, …); assay: SPR (Biacore T200), biotinylated FXIa captured on a CAP chip, IgG as analyte, 25 C
[4] = molecular target: T2, Cyno FXI (Macaca fascicularis, UniProt A0A2K5VVW4); assay: ELISA, wells coated with cynomolgus FXI (zymogen), anti-human IgG HRP, OD 450
T2 construct: coating antigen 'FXI' of the chart titled 'Cyno FXI/FXIA'; also called cynomolgus monkey FXI (zymogen)

B1: Clone 24 IgG (antibody, V domains shown)
VH: EVQLVQSGAEVKKPGASVKVSCKASGYTFTGYYMHWVRQAPGQGLEWMGWIDPDSGDTNYAQKFQGRVTMTRDTSISTAYMELSRLRSDDTAVYYCARLASGFRDYWGQGTLVTVSS
VL: DIVMTKSPSSLSASVGDRVTITCRASQGIRNDLGWYQQKPGKAPKRLIYAASSLQSGVPSRFSGSGSGTEFTLTISSLQPEDFATYYCLQHDIYASTFGPGTKVDIKR
notes: also called C24
EC50 (read off the curve) [1]: ~1 ng/mL

B4: D4 IgG (antibody, V domains shown)
VH: not shown
VL: B1 VL with K6Q
notes: also called D4 mAb; D4 anti-FXIa mAb
Kd [3]: 0.93 nM
binding result [4]: no binding (tested: not printed)

Results, then the binder that gave them:

Kd [2]: 0.0339 nM
B2: DEF Fab (Fab, V domains shown)
VH: B1 VH with S55E
VL: B1 VL with R108T

Kd [2]: 0.0152 nM
B3: C24 Fab (Fab, V domains shown)
VH: B1 VH
VL: B1 VL
notes: Fab format of clone 24; also called clone 24 Fab; anti-FXIa C24 Fab
